From the nanobody polyreactivity screen of Harvey et al. (2022) come the findings set out here.

This data set in a line: yeast display, Sf9 membrane polyspecificity reagent, FACS + sequencing; frameworks hold sequencing errors. The gist of the method: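 Galactose-induced (36–48 hours) yeast carrying a synthetic nanobody display library were exposed to 10% biotinylated, detergent-solubilized Sf9 membrane reagent at 4 °C for 1 hour. FACS followed streptavidin microbead enrichment, using low and high (top ~1%) gates for expression (anti-HA) and reagent binding (streptavidin). Colony PCR, MiSeq 2 × 250 sequencing and CDR-length filtering followed. Labels for polyreactivity reflect the gate of origin.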
Regarding “QDHLVESGGGLVEARGSLRLSCAASGFIFRGYAMGWYRQAPGKERELVAAINSGGSTNYADSVKGRFTISRDNAKNTVYLQMNSLKPEDSAVYYCAARWRSWRYKDDYWGQGSQVTVSS”, the “polyreactivity (PSR sort gate)” value is “high polyreactivity”.
To “QDHLVESGGGLVQAGGSLRLSCAASGNIIWWNAMGWYRQAPGKERELVAAITSDSTTYYADSVKGRFTISRDNAKNTVYLQLNSLKPEDTAVYYCAAYSYGGQGVDYGYWGQGTQVTVSS” belongs “low polyreactivity”; to “QDHLVESGGGLVQAGGSLRLSCAASGRIFTPNAMGWYRQAPGKERELVAAITSGGSTNYADSVKGRFTISRDNAKNTVYLQMNSLKPQDTAVYYCAVRYYYCSKKRNYWGQGTHVTVSS”, “high polyreactivity”; to “QDHLVESGGGLVQAGGTLRLSCAASGRIFVGYAMGWYRQAPGKERELVAGISRSGDSTYYADSVKGRFTISRDNAKNTVYLQMNSLKPEDTAVYYCAASWYKNQTRYYYWGQGTQVTVSS”, “high polyreactivity”.
Then “QDHLVESGVGLVQAGGSLRLSCAASGFAFWTYTMGWYRQAPGKERELVATITRGGRTKYADSVKGRFTISRDNAKNTVYLQMNSLKPEDTAVYYCAAARRRTGVRMDYWGLGTQVTVSS”, with “high polyreactivity”; and “QDLLVESGGGLVQAGGSLGLSCAASGRIFSIYAMGWYRLAPGKERELVAAITRGGRTNYADSVKGRFTISRDNAKNTDYLQMISLKPEDTAVYYCADRLIDGVVKPYDYWGQGTQVTVSS”, with “low polyreactivity”.
Then “QDPHVESGGGIVQAGGSISLRCSASGSTYAKKAMVRYRKAPGKEKELFADISASGGSTYYADSVKGRFTISRDIAKNSVYLQMYSLKPEETSVYYWAKSSYLTRGSRYDYWGQGTQVTLSS”, with “low polyreactivity”; and “QDQHVESGGGLVQAGGSLRLSCAASGIIFYAYVMGWYRQAPGKERELVAAITVSGGSTYYADSVKARFTISRDNAKNTVYLQMNSLKPEDTAVYYCAADWNFYQRTFDSWGQGTQVTVSS”, with “low polyreactivity”; and “QDQHVESGGGLVQAGGSLRLSCAASGITIRTNAIGWYRQAPGKERELVAAITTNGGNTYYADSVKGRFTISRENAKNTVYLQMNSLKQEDTAVYYCNTATYVDSFPDPGDHWGQGTQVTVSS”, with “low polyreactivity”.
With “QDQHVESGGGLVQAGGSLRLSCAASGLTYRYNAMGWYRPAPGKERELVAAITSSGGSTYYADSVKGRFTISRDNAKNTVYLQMNSLKPEDTAVYYCAAATNTQESVPMYYWGQGTQVTVSS”, the “polyreactivity (PSR sort gate)” value was “low polyreactivity”.
Consider “QDQHVESGGGLVQAGGSLRLSCAASGSIFVTNAMGWCRQARGKERELVAAISVSGGSTYYADSVKGRFTISRDNAKHTVYLQMTSLKPEDTAVYYCNTVRSPPGHDSWGQGTQVTVSS”, for which the “polyreactivity (PSR sort gate)” value is listed as “low polyreactivity”.
For “QDQHVESGGGLVQAGGSLRLSCAASGSTIVDYVMGWYRQAPGKERELVAAIRRSDGRTYYADSVKGRFTISRDNAKNTVYLQMNSLKPEDTAVYYCADYAFYRYFFPDVLYDYWGQGTQVTVSS”, the “polyreactivity (PSR sort gate)” value is listed as “low polyreactivity”.
On to “QDQHVESGGGLVQAGGSLRLSCAASGSTLYRYAMGWYRQAPGKERELVAAISSAGSTHYADSVKGRFTISRDNAKNTVYLQKNSLKPEDTAVYYCAKVVKKIEFDYWGQGTQVTVSS”, for which the “polyreactivity (PSR sort gate)” value was “high polyreactivity”.
Then “QDQHVESGGGLVQAGGSLRLSCADSGIIFYPNAMGWYRQAPGKERELVAAITGSGGSTYYADSVKGRFTISRDNAKYTVYIQMNSLKPEDTAVYYCATRYHRSDPSRDYWGQGTQVTVSS”, with “low polyreactivity”.
Then “QDQHVESGGGLVQAGGSLRLSCDASGTTIYDYVMGWYRKAPGKERELVAAITRGGSTNYADSVKGRFTISRDNAKNTVYLQMNRLKPEDTAVYYCAARPCIWARAGYYWGQGTQVTVSS”, with “high polyreactivity”.
To “QDQHVESGGGLVQAGGSLRLSFAASGRIFRYYAMRWYRQAPGKDRELVAAIRWTAGSTYYADSVKVRFTISRDNAKNTVYLQMNSLKPEDPAVYYCATDVWKYGRYEYWVQGTQVTVSS” belongs “low polyreactivity”; to “QDQHVQSGVGIVQAVGSLRLSCAASGFTIPSYAMGWYRMAPGKEREFVAAISWNSGSTYYADSVKGRFTISRDNAKNTVYLQMNSLKPEDTAVYYCNAGAYVRRRYAPGYSFEYDSWGQGTQVTVSS”, “high polyreactivity”.
For “QDQIVESCGGLVQAGGSLRLSCASSGNIIYPKAMGWYRQAPGKERDLVAAISTSRGSTYYADSVKGRFTISRDNAKNTVYLQMNSLKPEDTAVYYCNRRGPYGYKAWAIGTIGDLDYWGQGTQVTVSS”, the “polyreactivity (PSR sort gate)” value is reported as “low polyreactivity”.
Take “QDQIVETGGGLVQAGCSLRLSCAASGSIYYNSMGWYRTAHAKETELVASISTGDSTDYADSVKGRFTISRDYAKYTVYLQMNSLKPEDTAVYYCKAVASQHDEFDYWGQGTQVTVSS”: the “polyreactivity (PSR sort gate)” value was “low polyreactivity”.
On to “QDQLEESGGGLVQEGGSLRLSCAASGFTFRGYAMGWYRQAPGKERELVAAISYSGGSTYYADSVKGRFTISRDNAMNSVYLQMNSLKPEDTAVYFCAARGGGKVRHRGTYDYWGQGTQVTVSS”, for which the “polyreactivity (PSR sort gate)” value is “high polyreactivity”.
“QDQLGESGGGLVQAGGSLRLSCAASGYIFGTYAMGWYRQATGKERELVAAISVGGGSTYYADSVKGRFTISRDNAKHTVYLQMNSLKPEDTAVYYCAAVQLYQKHQITYVAHEYWGQGTQVTVSS”: the “polyreactivity (PSR sort gate)” value is on record as “low polyreactivity”.
In the case of “QDQLLESGGGVFQAGGSLRLSCAASGVIFGSYALGWYRPAPGKERELVADITQSGGRTRYADSVKGRFTISRDNAKNTVYLQMNSLKPEDSAVYYCNAQDVDSGDDYDYWGQGTQVTLSS”, the “polyreactivity (PSR sort gate)” value is on record as “low polyreactivity”.
In the case of “QDQLQESGGGLVQAGGSLRLSCAASGSISYPRTMGWYRQAPGKEREFVAGIGVGGTTYYADSVKGRFTISRDNAKNTVYLQMKSLKPEDAAVYYCAVAAYYDKYYVYWGQGTQVTVSC”, the “polyreactivity (PSR sort gate)” value is given as “low polyreactivity”.
Then “QDQLVDSGGGLDQAGGSLRLSCAASGGTFSSYDMGWYRQEPGKERELLADISWSGSSTDYADSVKGRYTISRDNAKNTVYLQLTSLKPEDTAVYYCAARPISFPYLGRNGYWGQGTQVTVSS”, with “low polyreactivity”.
To “QDQLVDSGGGLVQAGGRLRLSCAASGSTYRTYAMVRYRQAPGKERELVAAINSGGSTYYADSVKGRFTISRDNAKNTVYLQMNSLKPEDTAVYSCAREDYVSYRLLYYLFDYWGQGTQVTVSS” belongs “low polyreactivity”.
Then “QDQLVDSGGGLVQAGGSLRLSCAASGFTFFRKAMGWYREAPGKERQLVAAITRAGSTYYADSVKGRFTISRDNAKNTVYLQMNSLKAEDTEVYYCFDLSNRYAVRYDYWGQGTQVTVSS”, with “high polyreactivity”.
Turning to “QDQLVDSGGGLVQAGGSLRLSCAASGSIFTPNAMGWYRQAPGKERELVAAISWSGGGTYYADSVKGRFTISRDNAKNTVYLQMNSLKPEDTAVYYCNAEYTKTGALVIPYTYYYAEDYWGQGTQVTVSS”, the “polyreactivity (PSR sort gate)” value is “low polyreactivity”.
In the case of “QDQLVDSGGGLVQAGGSLRLSCAASGSIFWTYAMGWYRQAPGKERELVATITYSDGNTYYADSVKGRFTISRDNAMNTVYLQMNSLKPEDTAVYYCNADGIYASISGYRYDYWGQGTQVTVSS”, the “polyreactivity (PSR sort gate)” value was “low polyreactivity”.
To “QDQLVESAGGLVQAGGSLRLICAASASIFYWNAMGWYRQAPGKERELVAAITSGGSTYYADSVKGRFTISRDNAKNTVYLQMNSMKPEDTAVYYCAARPRGTYSRLGYWGQGTQVTVSS” belongs “high polyreactivity”; to “QDQLVESCGGLVQAGGSLRLSCAASGGIINGYTMGWYRQAPGKETDLVAAITGSGGSTYYADSVKGRYTISRDNAKNTVYLQMNSLKPEETAVYYCARDYHARPNCPRSDDYDYWGQGTQVTVSS”, “low polyreactivity”; to “QDQLVESCGGLVQAGGSLRLSCASSGSTIYIYAMGWSRQAPVKERELVAAITWSGGSTYYADSVKGRFTISRDNAKNTVYLQMNSLNREDTAVYYFAAYLRYYRKEVGYSSMNYWGQGTQVTVSS”, “high polyreactivity”.
For “QDQLVESGAGLVQAGGSLRLSCAASGITFSANAMGWYRQAPGKERELVATITWSGGSTYYADSVKGRFTISRDNAKNTVYLQMNSLKPEDTAVYFCNARSYDEYPYYSYNYWGQGTQVTVSS”, the “polyreactivity (PSR sort gate)” value is “low polyreactivity”.
To “QDQLVESGAGLVQAGGSLRLSCAASGRIFPGYAMGWYRQAPGKERELVAGITWRTARTYYADSVKGRFTISRDNAKNTVYLQMNSLKPEDTAVYYCAAKYARYGRHVIFDYWGQGTQVTVSS” belongs “high polyreactivity”.
To “QDQLVESGGALVQAGGSLRLSCAASGSIFDYNAMGWYRQAPRKDRELVAAISVNGGNTYYADSVKGRFTISRDNAKNTVYLQMNRLKPEDTGVSYCAADSYGGSNYDFWGQGTQVTVSS” belongs “low polyreactivity”; to “QDQLVESGGCLVQAGGSLRLSCAASRFTFSPYTMGWYRQAPGKERELVATIRYDGTSTYYADSVKGRFTISRDNAKNTVYLQMNSLKPEDTAVYYCNADPGYYDYDYWGEGTQVTVSS”, “low polyreactivity”; to “QDQLVESGGGIVQAGGSLRLICAASGRIFLRNDMGWYRQAPGKQRELVAGISSDGSTYYADSVKGRFTISRDNAKNTVYLQMNSLKPEDTAVYYCADERWGNPTDYQFWRQYDYWGQGTQVTVSS”, “low polyreactivity”.
Then “QDQLVESGGGIVQAGGSLRLSCAASGRTFTAYAMGWYRQAPGKERELVAAISSSGGSTYYADSEKGRFTISRDNAKNTVYLQMNSLKPDDTAVYYCAALGGYRYGYDYWGQGTQVTVSS”, with “high polyreactivity”.
On to “QDQLVESGGGLDQAGGSLRLSCAASGGTFKVNAMGWYRQAPGKEREFVAAISSGGSTYYADSVKGRFTISRDNAKNTVYLQINSLKPEDTAVYYFAASGAYDEAYGEAFYYWGQGTQVIVSS”, for which the “polyreactivity (PSR sort gate)” value is on record as “low polyreactivity”.
For “QDQLVESGGGLLQAGGSLRLSCAASGFTFSIYAMGWYRQAPGKERELVAAISSSSSTNYADSVKVRFTISRDNAKNTVYLQMNSLKPEDTEVYYCNADNVGNTFTWYDYWGQGTQVTVSS”, the “polyreactivity (PSR sort gate)” value is on record as “low polyreactivity”.
In the case of “QDQLVESGGGLLQAGGSLRLSCAASGIIFYPYAMGWYRQAPGKERELVAAITTRGRTYYADSVKGRFTISRDNAKNTVYLQLNSLKPEDTAVYYCNARRYFSRDSSGYNYWGQGTQVTVSS”, the “polyreactivity (PSR sort gate)” value is listed as “high polyreactivity”.
